The source of these data is article PMC5908291, “The JmjN domain as a dimerization interface and a targeted inhibitor of KDM4 demethylase activity” (Oncotarget, 2018).

B1: KDM4A with a C-terminal YN or YC tag (enzyme, human, UniProt O75164 1-1064, looked up)
chain: MASESETLNPSARIMTFYPTMEEFRNFSRYIAYIESQGAHRAGLAKVVPPKEWKPRASYDDIDDLVIPAPIQQLVTGQSGLFTQYNIQKKAMTVREFRKIANSDKYCTPRYSEFEELERKYWKNLTFNPPIYGADVNGTLYEKHVDEWNIGRLRTILDLVEKESGITIEGVNTPYLYFGMWKTSFAWHTEDMDLYSINYLHFGEPKSWYSVPPEHGKRLERLAKGFFPGSAQSCEAFLRHKMTLISPLMLKKYGIPFDKVTQEAGEFMITFPYGYHAGFNHGFNCAESTNFATRRWIEYGKQAVLCSCRKDMVKISMDVFVRKFQPERYKLWKAGKDNTVIDHTLPTPEAAEFLKESELPPRAGNEEECPEEDMEGVEDGEEGDLKTSLAKHRIGTKRHRVCLEIPQEVSQSELFPKEDLSSEQYEMTECPAALAPVRPTHSSVRQVEDGLTFPDYSDSTEVKFEELKNVKLEEEDEEEEQAAAALDLSVNPASVGGRLVFSGSKKKSSSSLGSGSSRDSISSDSETSEPLSCRAQGQTGVLTVHSYAKGDGRVTVGEPCTRKKGSAARSFSERELAEVADEYMFSLEENKKSKGRRQPLSKLPRHHPLVLQECVSDDETSEQLTPEEEAEETEAWAKPLSQLWQNRPPNFEAEKEFNETMAQQAPHCAVCMIFQTYHQVEFGGFNQNCGNASDLAPQKQRTKPLIPEMCFTSTGCSTDINLSTPYLEEDGTSILVSCKKCSVRVHASCYGVPPAKASEDWMCSRCSANALEEDCCLCSLRGGALQRANDDRWVHVSCAVAILEARFVNIAERSPVDVSKIPLPRFKLKCIFCKKRRKRTAGCCVQCSHGRCPTAFHVSCAQAAGVMMQPDDWPFVVFITCFRHKIPNLERAKGALQSITAGQKVISKHKNGRFYQCEVVRLTTETFYEVNFDDGSFSDNLYPEDIVSQDCLQFGPPAEGEVVQVRWTDGQVYGAKFVASHPIQMYQVEFEDGSQLVVKRDDVYTLDEELPKRVKSRLSVASDMRFNEIFTEKEVKQEKKRQRVINSRYREDYIEPALYRAIME
notes: Lysine demethylase KDM4A (JmjD2A), human, ORF amplified from pCMV-HA-JmjD2A; BiFC pair: one molecule stands for the YN and the YC conjugate; also called KDM4A-YN; KDM4A-YC; source: HEK293, transiently transfected, in cells; not shown: YN (Venus YFP residues 1-172) on one copy or YC (Venus YFP residues 155-238) on the other, C-terminal, kept
B2: KDM4C with a C-terminal YN or YC tag (enzyme, human, UniProt Q9H3R0 1-1056, looked up)
chain: MEVAEVESPLNPSCKIMTFRPSMEEFREFNKYLAYMESKGAHRAGLAKVIPPKEWKPRQCYDDIDNLLIPAPIQQMVTGQSGLFTQYNIQKKAMTVKEFRQLANSGKYCTPRYLDYEDLERKYWKNLTFVAPIYGADINGSIYDEGVDEWNIARLNTVLDVVEEECGISIEGVNTPYLYFGMWKTTFAWHTEDMDLYSINYLHFGEPKSWYAIPPEHGKRLERLAQGFFPSSSQGCDAFLRHKMTLISPSVLKKYGIPFDKITQEAGEFMITFPYGYHAGFNHGFNCAESTNFATVRWIDYGKVAKLCTCRKDMVKISMDIFVRKFQPDRYQLWKQGKDIYTIDHTKPTPASTPEVKAWLQRRRKVRKASRSFQCARSTSKRPKADEEEEVSDEVDGAEVPNPDSVTDDLKVSEKSEAAVKLRNTEASSEEESSASRMQVEQNLSDHIKLSGNSCLSTSVTEDIKTEDDKAYAYRSVPSISSEADDSIPLSSGYEKPEKSDPSELSWPKSPESCSSVAESNGVLTEGEESDVESHGNGLEPGEIPAVPSGERNSFKVPSIAEGENKTSKSWRHPLSRPPARSPMTLVKQQAPSDEELPEVLSIEEEVEETESWAKPLIHLWQTKSPNFAAEQEYNATVARMKPHCAICTLLMPYHKPDSSNEENDARWETKLDEVVTSEGKTKPLIPEMCFIYSEENIEYSPPNAFLEEDGTSLLISCAKCCVRVHASCYGIPSHEICDGWLCARCKRNAWTAECCLCNLRGGALKQTKNNKWAHVMCAVAVPEVRFTNVPERTQIDVGRIPLQRLKLKCIFCRHRVKRVSGACIQCSYGRCPASFHVTCAHAAGVLMEPDDWPYVVNITCFRHKVNPNVKSKACEKVISVGQTVITKHRNTRYYSCRVMAVTSQTFYEVMFDDGSFSRDTFPEDIVSRDCLKLGPPAEGEVVQVKWPDGKLYGAKYFGSNIAHMYQVEFEDGSQIAMKREDIYTLDEELPKRVKARFSTASDMRFEDTFYGADIIQGERKRQRVLSSRFKNEYVADPVYRTFLKSSFQKKCQKRQ
notes: Lysine demethylase KDM4C (GASC1), human, ORF amplified from pCMV-HA-GASC1; 1056 aa as printed; BiFC pair: one molecule stands for the YN and the YC conjugate; also called KDM4C-YN; KDM4C-YC; source: HEK293, transiently transfected, in cells; not shown: YN (Venus YFP residues 1-172) on one copy or YC (Venus YFP residues 155-238) on the other, C-terminal, kept

Test in all cases: split reporter (BiFC, NanoBiT); BiFC (Venus YN + YC), IF microscopy of fixed HEK293 cells with quantitative image analysis (Imaris): mean reconstituted YFP fluorescence in each anti-YFP positive cell, >100 cells for each transfection
The target in data set [1] is B2.
Data set [2] concerns the target KDM4B with a C-terminal YN or YC tag (human) (UniProt O94953).
Data set [3] deals with the molecule itself.

KDM4B with a C-terminal YN or YC tag (human), sequence (O94953 whole entry): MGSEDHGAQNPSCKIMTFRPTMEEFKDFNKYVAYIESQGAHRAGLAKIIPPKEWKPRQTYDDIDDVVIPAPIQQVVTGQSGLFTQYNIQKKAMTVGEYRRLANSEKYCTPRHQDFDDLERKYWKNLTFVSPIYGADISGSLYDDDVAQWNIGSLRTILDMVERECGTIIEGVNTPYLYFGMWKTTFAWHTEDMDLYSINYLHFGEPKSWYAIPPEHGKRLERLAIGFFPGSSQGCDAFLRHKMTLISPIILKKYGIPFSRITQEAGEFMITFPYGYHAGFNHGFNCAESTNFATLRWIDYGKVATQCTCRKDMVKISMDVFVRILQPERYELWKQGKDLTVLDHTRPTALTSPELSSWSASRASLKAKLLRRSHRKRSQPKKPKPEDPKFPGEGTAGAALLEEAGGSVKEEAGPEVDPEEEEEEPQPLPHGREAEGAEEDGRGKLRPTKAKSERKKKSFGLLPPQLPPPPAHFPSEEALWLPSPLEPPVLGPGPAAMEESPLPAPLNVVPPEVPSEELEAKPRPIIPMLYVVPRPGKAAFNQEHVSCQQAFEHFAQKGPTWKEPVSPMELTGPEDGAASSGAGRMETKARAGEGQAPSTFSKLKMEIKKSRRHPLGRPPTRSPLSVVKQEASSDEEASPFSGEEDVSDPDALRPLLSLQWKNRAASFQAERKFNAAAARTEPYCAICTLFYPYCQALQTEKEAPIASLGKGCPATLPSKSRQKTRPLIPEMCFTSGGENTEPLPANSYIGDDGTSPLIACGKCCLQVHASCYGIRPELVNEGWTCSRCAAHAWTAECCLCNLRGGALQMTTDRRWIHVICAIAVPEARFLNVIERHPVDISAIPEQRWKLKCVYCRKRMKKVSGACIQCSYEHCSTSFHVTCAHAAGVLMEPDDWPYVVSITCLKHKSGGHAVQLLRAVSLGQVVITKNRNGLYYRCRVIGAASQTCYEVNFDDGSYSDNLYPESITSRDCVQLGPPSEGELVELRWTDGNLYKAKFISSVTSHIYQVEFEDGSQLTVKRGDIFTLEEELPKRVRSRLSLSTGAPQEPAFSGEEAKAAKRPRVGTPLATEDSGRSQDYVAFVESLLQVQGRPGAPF

As for “KDM4B with a C-terminal YN or YC tag (from UniProt O94953 1-1096) (enzyme)”, in data set [1], the YFP fluorescence (BiFC), Average (arbitrary units) is 170; the YFP fluorescence (BiFC), Max (arbitrary units) amounted to 356; the YFP fluorescence (BiFC), Median (arbitrary units) stood at 146; the YFP fluorescence (BiFC), Min (arbitrary units) was 50. Also, in data set [2], the YFP fluorescence (BiFC), Average (arbitrary units) was 129; the YFP fluorescence (BiFC), Max (arbitrary units) was found to be 320; the YFP fluorescence (BiFC), Median (arbitrary units) amounted to 120; the YFP fluorescence (BiFC), Min (arbitrary units) is 48.
Consider B1, for which, in data set [1] (partners not purified), the “YFP fluorescence (BiFC), Average” value was 845 arbitrary units; the “YFP fluorescence (BiFC), Max” value stood at 3080 arbitrary units; the “YFP fluorescence (BiFC), Median” value was 717 arbitrary units; the “YFP fluorescence (BiFC), Min” value was 320 arbitrary units. Besides, in data set [3], the “YFP fluorescence (BiFC), Average” value was found to be 943 arbitrary units; the “YFP fluorescence (BiFC), Max” value turned out to be 3140 arbitrary units; the “YFP fluorescence (BiFC), Median” value turned out to be 726 arbitrary units; the “YFP fluorescence (BiFC), Min” value is 259 arbitrary units. In data set [2], the YFP fluorescence (BiFC), Average (arbitrary units) worked out at 110; the YFP fluorescence (BiFC), Max (arbitrary units) was determined as 309; the YFP fluorescence (BiFC), Median (arbitrary units) was 104; the YFP fluorescence (BiFC), Min (arbitrary units) worked out at 19.
Regarding B2, in data set [3], the “YFP fluorescence (BiFC), Average” value was determined as 741 arbitrary units; the “YFP fluorescence (BiFC), Max” value is 2890 arbitrary units; the “YFP fluorescence (BiFC), Median” value was 628 arbitrary units; the “YFP fluorescence (BiFC), Min” value was determined as 204 arbitrary units.
